From article PMC12410180, “An anti-CEA affibody showing high-definition staining in human pancreatic cancer tissue sections and selective tumor targeting in vivo” (Translational Oncology, 2025)

Molecular target: T1, human CEA His6-tag (Acro BioSystems, cat. hCE5-H5226) (Homo sapiens, UniProt P06731)
T1 construct: human carcinoembryonic antigen (CEA, CEACAM5), recombinant, His6-tagged; Glycosylated; also called CEACAM5; carcinoembryonic antigen-related adhesion molecule 5; source: bought: Acro BioSystems, produced in HEK293 cells
Test: SPR; MFE-23 scFv dilution series (1-100 nM, 3-fold) over a freshly immobilized surface with CEA (2500 RU); 25 °C, PBST pH 7.4; Langmuir 1:1 fit
Details: both partners purified

T1 sequence (P06731 35-685): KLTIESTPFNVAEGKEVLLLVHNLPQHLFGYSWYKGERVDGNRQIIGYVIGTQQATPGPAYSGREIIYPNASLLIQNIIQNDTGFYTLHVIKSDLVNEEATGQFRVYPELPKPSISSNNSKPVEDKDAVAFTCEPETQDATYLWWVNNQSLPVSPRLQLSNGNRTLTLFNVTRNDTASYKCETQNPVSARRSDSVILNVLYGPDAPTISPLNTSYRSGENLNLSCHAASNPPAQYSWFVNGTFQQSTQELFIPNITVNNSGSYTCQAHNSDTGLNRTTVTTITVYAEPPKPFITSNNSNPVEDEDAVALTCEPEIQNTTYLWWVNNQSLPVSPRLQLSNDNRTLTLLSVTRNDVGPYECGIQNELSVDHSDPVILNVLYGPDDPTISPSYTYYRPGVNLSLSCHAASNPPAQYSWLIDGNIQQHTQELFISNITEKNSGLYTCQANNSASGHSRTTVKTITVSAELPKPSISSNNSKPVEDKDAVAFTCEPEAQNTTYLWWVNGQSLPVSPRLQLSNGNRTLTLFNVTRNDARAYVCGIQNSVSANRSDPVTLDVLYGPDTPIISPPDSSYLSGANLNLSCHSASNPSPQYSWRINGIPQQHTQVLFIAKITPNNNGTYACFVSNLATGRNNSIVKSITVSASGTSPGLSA

B1: anti-CEA scFv fragment MFE-23 (scFv, V domains shown)
VH: QVKLQQSGAELVRSGTSVKLSCTASGFNIKDSYMHWLRQGPEQGLEWIGWIDPENGDTEYAPKFQGKATFTTDTSSNTAYLQLSSLTSEDTAVYYCNEGTPTGPYYFDYWGQGTTVTVSS
VL: ENVLTQSPAIMSASPGEKVTITCSASSSVSYMHWFQQKPGTSPKLWIYSTSNLASGVPARFSGSGSGTSYSLTISRMEAEDAATYYCQQRSSYPLTFGAGTKLELK
notes: Expressed from pET22b(+) with a PelB signal peptide; also called MFE-23 scFv; scFv MFE-23; source: E. coli BL21(DE3), periplasmic preparation, purified (IMAC)
**Q.** How did the Kd turn out when B1 was run?
**A.** ~0.015 µM
